Read-outs that look alike come from different tables or passages of the source. Each block holds one binder with its values, some of them ahead of it.
Experiments:
[1] = target: T1, human IL-17RA on HT1080 cells (human, UniProt Q96F46 33-866); assay: cell-based or functional assay
T1 sequence: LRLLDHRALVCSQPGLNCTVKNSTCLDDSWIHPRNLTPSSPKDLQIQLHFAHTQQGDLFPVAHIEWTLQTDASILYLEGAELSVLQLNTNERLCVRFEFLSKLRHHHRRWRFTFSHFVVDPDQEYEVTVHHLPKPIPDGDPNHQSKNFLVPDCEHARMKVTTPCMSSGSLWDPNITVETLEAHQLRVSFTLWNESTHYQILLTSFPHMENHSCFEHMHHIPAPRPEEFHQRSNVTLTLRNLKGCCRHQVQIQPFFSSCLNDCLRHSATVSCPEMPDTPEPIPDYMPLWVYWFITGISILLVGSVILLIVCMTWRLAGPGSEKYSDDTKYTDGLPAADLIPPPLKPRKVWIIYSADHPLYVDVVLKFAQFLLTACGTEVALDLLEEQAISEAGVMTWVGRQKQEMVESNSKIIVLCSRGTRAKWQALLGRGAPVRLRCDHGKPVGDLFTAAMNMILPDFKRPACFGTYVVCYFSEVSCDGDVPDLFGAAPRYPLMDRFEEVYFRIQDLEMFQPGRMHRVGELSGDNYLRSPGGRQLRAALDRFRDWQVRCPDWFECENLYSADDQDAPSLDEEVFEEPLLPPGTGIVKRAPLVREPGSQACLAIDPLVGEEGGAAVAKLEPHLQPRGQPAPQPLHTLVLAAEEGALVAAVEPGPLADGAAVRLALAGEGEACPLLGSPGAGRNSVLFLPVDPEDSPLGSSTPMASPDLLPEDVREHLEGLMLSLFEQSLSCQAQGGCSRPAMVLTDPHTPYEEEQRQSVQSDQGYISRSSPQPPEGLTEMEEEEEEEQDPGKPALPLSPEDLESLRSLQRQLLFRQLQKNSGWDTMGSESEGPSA

[2] = target: T2, recombinant human IL-17RA Fc fusion protein (R&D Systems 177-IR-100) (human, UniProt Q96F46 33-320); assay: BIAcore T200 single-cycle kinetics, IL-17RA-Fc captured on protein G chip, VH as analyte
T2 construct: Bought protein; not shown: Fc domain of human IgG1
T2 sequence: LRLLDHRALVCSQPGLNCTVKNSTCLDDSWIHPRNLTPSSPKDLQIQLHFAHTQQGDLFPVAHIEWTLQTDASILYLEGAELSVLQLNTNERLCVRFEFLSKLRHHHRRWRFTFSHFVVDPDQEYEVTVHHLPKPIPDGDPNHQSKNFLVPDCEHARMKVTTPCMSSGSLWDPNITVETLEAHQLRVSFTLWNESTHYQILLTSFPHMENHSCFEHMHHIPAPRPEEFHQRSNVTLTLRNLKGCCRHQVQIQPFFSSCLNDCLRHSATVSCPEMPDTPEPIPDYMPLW
Experimental: (§1) Binding kinetics of anti-IL-17RA VH antibodies were measured on a BIAcore® T200 instrument. For IL-17RA, first a protein G chip was prepared by diluting protein G to 20 ug/ml in acetate buffer, pH 4 (BIAcore®, cat# BR-100-49) and then coupled 1200 RU to a CM5 Series S chip using amine coupling chemistry. This surface was then used to capture IL-17RA Fc fusion protein from solution: IL-17RA at 10 ug/ml in HBS injected for 10 seconds at 30 ul/min flow rate would capture approximately 100-150 RU of IL-17RA onto the protein G surface.
(§2) Binding kinetics of anti-IL-17RA VH antibodies were determined by single-cycle kinetics. VH antibodies were prepared in dilution series (typically 1:3 dilution series starting with 100 nM VH at the highest concentration), and then injected over the antigen coated surfaces and also a blank surface, starting with the lowest concentration of VH and then working progressively up to the highest concentration. VH binding kinetics were then determined from the (blank subtracted) sensorgram traces using 1:1 binding models and BIAevaluation software.

[3] = target: T2, recombinant human IL-17RA Fc fusion …; assay: IL-17RA ligand inhibition ELISA (FIG. 10B): VH competes with IL-17A for coated IL-17RA-Fc
Experimental: (§3) VH, both purified and crude periplasmic extracts, were also tested for their ability to inhibit the interaction of IL-17A with recombinant IL-17RA-Fc. […] Following washing of excess coating antigen, as described above, the wells of the plate were incubated with 3% Marvel/PBS to block non-specific protein interactions. VH preparations, crude periplasmic extracts or purified VH, or suitable controls, were prepared with 1 nM recombinant IL-17A (Peprotech, cat# AF-200-17) in 3% skimmed milk powder/PBS solution in polypropylene plates or tubes. The mixture was then transferred to the assay plate and incubated for 1 hour at room temperature. Excess protein was removed by washing and bound IL-17A was detected by incubation with biotinylated anti-IL-17A Mab (R & D Systems, cat BAF317) followed by the addition of neutravidin-HRP (Pierce, cat#31030) and TMB substrate (Sigma, cat# T0440). The TMB reaction was stopped by addition of 0.5M H₂SO₄ and absorbances were measured at 450 nm in a plate reader.

IL-17RB = target: T3, IL-17RB (UniProt Q9NRM6 18-289, limits assumed); assay: specificity ELISA, antigen coated, anti-His-HRP detection
T3 sequence (looked up): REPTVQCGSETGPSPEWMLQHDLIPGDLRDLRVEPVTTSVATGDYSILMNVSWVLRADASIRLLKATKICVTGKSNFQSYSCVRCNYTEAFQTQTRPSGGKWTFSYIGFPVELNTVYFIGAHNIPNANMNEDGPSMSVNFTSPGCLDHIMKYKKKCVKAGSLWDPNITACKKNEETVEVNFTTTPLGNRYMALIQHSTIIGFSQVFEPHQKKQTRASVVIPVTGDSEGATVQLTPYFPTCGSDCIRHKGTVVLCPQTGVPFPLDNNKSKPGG
Experimental: (§4) The binding ELISA for crude or purified VH was similar to the serum ELISA and phage ELISA, previously described, mostly differing in the final detection steps. Briefly, antigen was immobilised on maxisorb plates (Nunc 443404) by adding 50 ul volumes at 0.1-1 ug/ml in PBS and incubating at 4° C. overnight. Following coating, the antigen solution was aspirated and the plates were washed using PBS (prepared from PBS tablets, Oxoid cat no. BR0014G) supplemented with 0.05% Tween® 20 (sigma P1379), followed by washes with PBS without added Tween®. To block non-specific protein interactions, a solution of 3% skimmed milk powder (Marvel) in PBS was added to the wells and the plate was incubated for at least one hour at room temperature. Dilutions of periplasmic extract or purified VH in 3% Marvel/PBS were prepared in polypropylene tubes or plates and incubated for at least one hour at room temperature prior to transfer to the blocked ELISA plate where a further incubation of at least one hour took place. Unbound protein was then washed away using repetitive washes with PBS/Tween® followed by PBS. A solution of HRP-conjugated anti-His Ab (Miltenyi Biotec, 130-092-785), prepared at 1:1000 dilution in PBS/3% Marvel was then added to each well and a further incubation at room temperature for at least one hour took place. Unbound detection antibody was removed by repeated washing using PBS/Tween® and PBS. The ELISA was then developed using TMB substrate (Sigma cat. no. T0440) and the reaction was stopped after 10 minutes by the addition of 0.5M H₂SO₄ solution (Sigma cat. no. 320501). Absorbances were determined by reading at 450 nm.

IL-17RD = target: T4, IL-17RD (UniProt Q8NFM7 17-299, limits assumed); assay: as above
T4 sequence (looked up): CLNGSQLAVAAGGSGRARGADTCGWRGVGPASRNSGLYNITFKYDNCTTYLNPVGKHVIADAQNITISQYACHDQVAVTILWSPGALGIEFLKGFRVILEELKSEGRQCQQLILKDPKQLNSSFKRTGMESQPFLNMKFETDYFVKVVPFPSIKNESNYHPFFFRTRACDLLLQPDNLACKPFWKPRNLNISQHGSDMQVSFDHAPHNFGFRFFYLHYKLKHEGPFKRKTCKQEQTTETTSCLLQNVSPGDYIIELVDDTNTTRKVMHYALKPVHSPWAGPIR
Experimental: as §4

[4] = target: T2, recombinant human IL-17RA Fc fusion …; assay: receptor/ligand biochemical inhibition ELISA: VH competes with 1 nM IL-17A for coated IL-17RA-Fc
Experimental: as §3

[5] = target: T2, recombinant human IL-17RA Fc fusion …; assay: BIAcore T200 single-cycle kinetics, IL-17RA-Fc captured on protein G chip, VH as analyte; remark: listed apart in the source
Experimental: as §1, §2

[6] = target: T2, recombinant human IL-17RA Fc fusion …; assay: receptor/ligand biochemical inhibition ELISA: VH competes with 1 nM IL-17A for coated IL-17RA-Fc; remark: listed apart in the source
Experimental: as §3

[7] = target: T1, human IL-17RA on HT1080 cells; assay: cell-based or functional assay; remark: listed apart in the source
[8] = target: T1, human IL-17RA on HT1080 cells; assay: cell-based or functional assay; remark: listed apart in the source

Cell assay IC50 [1]: 282 nM
Kd [2]: 4.5 nM
B1: VH clone 4.1 (VHH)
VHH: QVQLVQSGAEVKKPGASVKVSCKASGYPFTNYDISWIRQATGQSLEWMGWMNPDSGNTGYAQKFQGRVTMTRNTSISTAYMELSGLRSEDTAVYFCARGGYNAWRTDYWGQGTLVTVSS
notes: Human VH single domain antibody, no light chain; Parent clone of family 4

IC50 [3]: 6.93 µM
B2: VH clone 4.55 (VHH)
VHH: QVQLQQSGAEVKKPGASVKVSCKASGYTFTSYDISWVRQATGQSLEYMGWMNPNSGNTGYAQKFQGRVTMTRNTSISTAYMELSSLRSEDTAVYYCARGGITEWRRDYWGQGTLVTVSS
notes: Human VH single domain antibody, no light chain; Family 4

binding result (IL-17RB): no binding
binding result (IL-17RD): no binding
B3: VH 62A4 (VHH)
VHH: QVQLVESGGGLVQPGRSLTLSCTASGFTFHDYAMHWVRQPPGGGLEWVAGVSWNGNNVGYADSVKGRFTISRDNAKKSLYLQMNSLRSEDTALYYCAKGGMGSGSHPDSFSTWGQGTMVTVSS
notes: VH single domain

IC50 [4]: 11 nM
Kd [2]: 9.6 nM
B4: VH clone 3.1 (VHH)
VHH: EVQLVESGGGLVQPGGSLRLSCAASGFPFSTYWMRWLRQAPGKGLEWVANINQDGSEKYYVDSVKGRFTISRDNAKSSLFLQMNSLRAEDTAVYYCARGWESGWFEPWGQGTLVTVSS
notes: Human VH single domain antibody, no light chain; Parent clone of family 3; also called VH 3.1

IC50 [3]: 0.022 µM
B5: VH clone 3.20 (VHH)
VHH: QVQLVESGGGLVQPGGSLRLSCAASGFPFSTYWMRWLRQAPGKGLEWVANIKQDGSEKYYVDSVKGRFTISRDNAKNSLFLQMNSLRAEDTAVYYCARGWESGWFEPWGQGTLVTVSS
notes: Human VH single domain antibody, no light chain; Family 3; also called VH 3.20

Cell assay IC50 [1]: 233 nM
Kd [2]: 31 nM
B6: VH clone 6.1 (VHH)
VHH: EVQLVESGGGLVKPGGSLRLSCAASGFTFSDDYMSWLRQAPGKGLEWVSYISSSGSTIYYADSVKGRFTISRDNAKNSLYLQMNSLRAEDSAVYYCARKDITNIAVGSLGYWGQGTLVTVSS
notes: Human VH single domain antibody, no light chain; Parent clone of family 6

Cell assay IC50 [1]: 1840 nM
Kd [2]: 370 nM
B7: VH clone 7.1 (VHH)
VHH: EVQLVESGGGLVQPGGSLRLSCAASGFTFSNYWMSWVRQARGKGLEWVANIRPDGSERYYVDSVKGRFTISRDNAKNSLYLQMSSLRAEDTAVYYCARSRDWGSRAFDIWGQGTMVTVSS
notes: Human VH single domain antibody, no light chain; Parent clone of family 7

Kd [5]: 2.5 nM
koff [5]: 0.00137 s⁻¹
kon [5]: 555000 M⁻¹ s⁻¹
IC50 [6]: 1.3 nM
Cell assay IC50 [7]: 118 nM
B8: VH clone 2.3 (VHH)
VHH: QVQLVQSGAEVKKPGASVKVSCKASGYPFTSYDINWVRQATGRSLEWMGWMNPTSGDTVYAQKFQDRVTMTRNTSISTAYMELSSLRSEDTAVYFCARGRRDNWKNNYWGQGTLVTVSS
notes: Human VH single domain antibody, no light chain; Optimised variant of clone 2.1

Cell assay IC50 [1]: 73 nM
IC50 [4]: 80 nM
Kd [2]: 41 nM
B9: VH clone 5.1 (VHH)
VHH: EVQLVESGGGLVKPGGSLRLSCEASGFTFSDFDMSWIRQAPGKGLEWVAYISSSDSTIYYRDSVKGRFTISRDNAKNSLYLQMNSLRAEDTAVYYCSRNGARYNWNYGDFQHWGQGTLVTVSS
notes: Human VH single domain antibody, no light chain; Parent clone of family 5

binding result (IL-17RB): no binding
binding result (IL-17RD): no binding
IC50 (nM), cell-based assay [8]: 141 nM
B10: VH clone 1.2 (VHH)
VHH: EVQLVESGGGLVQPGRSLRLSCAASGFTFDDYAMHWVRQAPGKGLEWVSGISWNSGRMDYADSVKGRFTISRDNAKNSLYLQMNSLRAEDTALYYCAKEKGLGYCRGGSCSYFDYRGQGTLVTVSS
notes: Human VH single domain antibody, no light chain; Family 1; also called VH 1.2

Cell assay IC50 [1]: 4.7 nM
binding result (IL-17RB): no binding
binding result (IL-17RD): no binding
IC50 (nM), cell-based assay [8]: 39 nM
Kd [2]: 0.063 nM
B11: VH clone 1.1 (VHH)
VHH: QVQLVESGGGLVQPGRSLRLSCAASGFTFDDYAMHWVRQAPGKGLEWVSGISWNSGRMDYADSVKGRFTISRDNAKKSLYLQMNSLRAEDTAMYYCAKEKGLGFCRGGSCSYFDYRGQGTLVTVSS
notes: Human VH single domain antibody, no light chain; Parent clone of family 1; also called VH 1.1

— patent US20180215829A1 (CRESCENDO BIOLOGICS, published 2018)
